Measured values as given in publication PMC2982130 (Molecular Biology of the Cell, 2010).

Columns and labels:
[1] = target: the molecule itself; assay: cross-linking + co-IP
[2] = target: T1, Recombinant human BMPRII/Fc chimera protein (human, UniProt Q13873 27-150); assay: SPR
T1 sequence: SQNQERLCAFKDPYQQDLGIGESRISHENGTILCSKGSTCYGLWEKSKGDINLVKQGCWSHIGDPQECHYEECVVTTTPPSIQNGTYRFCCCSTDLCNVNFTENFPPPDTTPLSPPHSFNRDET

B1: 125I-labeled recombinant human BMP4 (ligand)
chain: SPKHHSQRARKKNKNCRRHSLYVDFSDVGWNDWIVAPPGYQAFYCHGDCPFPLADHLNSTNHAIVQTLVNSVNSSIPKACCVPTELSAISMLYLDEYDKVVLKNYQEMVVEGCGCR
modifications: 125I (radioiodinated, Chloramine T method)
stoichiometry N [1]: 2

B2: Recombinant human BMP2 (bone morphogenetic protein 2) (ligand)
chain: QAKHKQRKRLKSSCKRHPLYVDFSDVGWNDWIVAPPGYHAFYCHGECPFPLADHLNSTNHAIVQTLVNSVNSKIPKACCVPTELSAISMLYLDENEKVVLKNYQDMVVEGCGCR
Kd [2]: 164 nM
